Where a chain is given by its changes, count along the chain named.

This is an account of results in patent US20240101708A1 (Genentech, published 2024).

For this experiment, the target named is T1, recombinant human RNF43 extracellular domain (human, UniProt Q68DV7 24-197).
T1 construct: extracellular domain; also called huRNF43; human RNF43 ECD
T1 sequence (looked up): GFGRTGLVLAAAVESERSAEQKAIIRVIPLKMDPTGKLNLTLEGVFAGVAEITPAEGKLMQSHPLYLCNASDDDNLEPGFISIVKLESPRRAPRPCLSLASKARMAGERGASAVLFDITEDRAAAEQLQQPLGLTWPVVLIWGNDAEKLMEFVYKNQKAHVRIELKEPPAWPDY
The experiment is described as follows: SPR Biacore 8K; antibody captured on Protein A; RNF43 ECD analyte; 25 C. On the technique in general: In SPR one partner is held on a chip, and binding of the other changes the refractive index at the surface.

B1: RNF43-21 (antibody, V domains shown)
VH: QSLEESGGDLVKPGASLTLTCTASGFSFSSSYYMCWVRQAPGKGLEWIACIYAGSSGSTYYASWAKGRFTVSKTSSTTVTLQMTSLTAADTATYFCARYTYGSGSDSYFNLWGPGTLVTVSS
VL: AYDMTQTPASVEAAVGGTVTIQCQASQSIGSYLAWYQQKPGQPPKLLIYRASTLSSGVPSRFKGSGSGTQFTLTISDLECADAATYYCQQGYSITNLDNGFGGGTEVVVK
notes: Rabbit clone; VH/VL only
In general, Kd refers to a measure of binding affinity in units of concentration. For B1, the Kd worked out at 10.3 nM.

B2: RNF43-22 (antibody, V domains shown)
VH: QEQLEESGGDLVKPGASLTLTCTASGFSVSNSYYMCWVRQAPGKGLEWIACINTGSSGSTYYASWAKGRFTISKTSSTTVTLQMTTLTAADTATYFCARGYAGYAGYGQFNLWGPGTLVTVSS
VL: AYDMTQTPASVEVAVGGTVTIKCQASQSISSYLAWYQQKPGQRPKVLIYDVSKLASGVPSRFKGSGSGTQFTLTISGVECADAATYYCQQGYSMSNVDNTFGGGTEVVVK
notes: Rabbit clone; VH/VL only
For B2, the equilibrium dissociation constant (Kd) is 0.5 nM.

B3: RNF43-23 (antibody, V domains shown)
VH: QEQVVESGGGLVQPEGSLTLTCKGSGFDFSGNVLCWVRQAPGKGLEWIGCIATGIGSTAYASWAKGRFTITRGTSLNTVDLKMTSLTAADTATYFCARYVSGSEYYNFWGPGTLVTVSS
VL: B2 VL with Y32F, R43P, K45M, V46L, D50K, V51A, K53T, M94W, S95N, N96G
notes: Rabbit clone; VH/VL only
For B3, the Kd came to 85 nM.

B4: RNF43-15 (antibody, V domains shown)
VH: QEQLEESGGDLVKPGASLTLTCTASRFSFSNDDVICWVRQAPGKGLEWIGCIATINGNTAYATWAKGRFTSSKTSSTTVTLQMTRLTAADTATYFCARWDTGSEHVTLWGPGTLVTVSS
VL: B2 VL with R43P, V46P, D50E, V51A, K63S, E79Q, Y92A, M94W, T100V
notes: Rabbit clone; VH/VL only
Regarding B4, the Kd amounted to 8 nM.

B5: RNF43-2 (antibody, V domains shown)
VH: QSLEESGGDLVKPGASLTLTCTASGFSFSSSYYMCWVRQAPGKGLELIGCGFTGRHYTYYASWAKGRFTISKSSSTTVTLQMTSLTAADTATYFCARKSGSDYDYFDLWGPGTLVTVSS
VL: AYDMTQTPASVEAVVGGTVTIKCQASQSINSWLSWYQQKPGQRPKLLIYRASTLASGVSSRFKGSGSGTEFTLTISDLECADAATYYCQQGYVSSNINNVFGGGTEVVVK
notes: Rabbit clone; VH/VL only
With B5, the binding result is on record as “no binding”.

B6: RNF43-11 (antibody, V domains shown)
VH: QEQLVESGGGLVQPEGSLTLTCKASGFDFSSNVMCWVRQAPGKGLEWIGCIYTGSSGSTYYASWAKGRFTITRSTSLNTVTLQMTSLTAADTATYFCARYVSGGEYYNLWGPGTLVTVSS
VL: ALVMTQTPASVEAAVGGTVTINCQASESISNWLAWYQQKPGQPPKLLIYKASTLASGVSSRFKGSGSGTQFTLTISDLECADAATYYCQQGSSWINIEDVFGGGTEVVVK
notes: Rabbit clone; VH/VL only
For the molecule B6, the Kd was found to be 27.7 nM.

B7: RNF43-20 (antibody, V domains shown)
VH: REQLVESGGGLVQPEGSLTLTCKASGFDFSSNVMCWVRQAPGKGLEWIGCIYTGSGSTAYASWAKGRFTITRSTSLNTVTLQMTSLTAADTATYFCARYVSGGEYYNLWGPGTLVTVSS
VL: B6 VL with N22K, E27Q, N31S, W32Y, A34N, I95N, N96S, D99N, V100I
notes: Rabbit clone; VH/VL only
As to B7, the binding result is listed as “no binding”.

B8: RNF43-16 (antibody, V domains shown)
VH: QSVEESGGRLVTPGTPLTLTCTVSGFFLSSYYMSWVRQAPGKGLEWIGYIYAGSGSTYYASWAKGRFTISKTSTTVDLKITSPTTEDTATYFCVRDINGGDYGMDPWGPGTLVTVSS
VL: DIVMTQTPASVSAAVGGTVTIKCQASESIDSGLAWYQQKPGQRPKLLIYAASNLASGVSSRFKGSGSGTEYSLTISGVQCDDAATYYCQCTYGSVTSNTYGIAFGGGTEVVVK
notes: Rabbit clone; VH/VL only
For the molecule B8, the Kd stood at 37.8 nM.

B9: RNF43-14 (antibody, V domains shown)
VH: QSVEESGGRLVTPGTPLTLTCTVSGIDLSSYAMGWVRQAPGKGLEYIGFIYASGSTYYASWAKGRFTISKTSTTVDLKITSPTTEDTATYFCARDSSETINYFNIWGPGTLVTVSL
VL: NIVMTQTPSPVSGAVGGTVTIKCQASQSISNWLAWYQQKPGQPPKVLIYRASTLASGVSSRFKGSGSGTEFTLTISDLECADAATYYCQQGYYISYLDNAFGGGTEVVVK
notes: Rabbit clone; VH/VL only
B9: the Kd was 0.8 nM.

B10: RNF43-6 (antibody, V domains shown)
VH: QSLEESGGRLVTPGTPLTLTCTVSGFSLSAFGMNWVRQAPGKGLEWIGYISAGGSAVYPNWAEGRFTISKASTTVTLKMTSLTTEDTATYFCVRGGYVGSTNSLWGPGTLVTVSS
VL: AAVLTQTPSPVSAAVGGTVSISCQSSKSVHNNNWLAWYQQKPGQPPKLLIYGASTLASGVPSRFKGSGSGTQFTLTISDVQCDDAATYYCSGGYSSIIDNGFGGGTDVVVE
notes: Rabbit clone; VH/VL only
In the case of B10, the dissociation constant (Kd) is 10.3 nM.

B11: RNF43-5 (antibody, V domains shown)
VH: QSVEESGGRLVTPGTPLTLTCTVSGFSLNTYAMGWVRQAPGKGLEWIGTIGSSGSTYYATWAKGRFTVSKTSTTVDLKITSPTTEDTATYFCVRGADGLNYYPIWGPGTLVTVSL
VL: AQVLTQTPSSVSAAVGGTVTINCQASQSVYNNKNLAWYQQKPGQPPKLLIYDASDLASGVSSRFKGSGSGTQFTLTISGVQCDDAATYYCQGEFNCDKGDCNAFGGGTEVVVK
notes: Rabbit clone; VH/VL only
Take B11: the dissociation constant (Kd) is 1.1 nM.

B12: RNF43-17 (antibody, V domains shown)
V domain 1: QSVEESGGRLVTPGTPLTLTCTGSGFSLSNYAMGWVRQAPGKGLEYIGIIYASGSTWYASWAKGRFTISKTSTTVDLKITSPATEDTATYFCCRDATTTYDRLDLWGQGTLITVSS
V domain 2: AFELTQTPSSVEAAVGGTVTIKCQASQSISKWLAWYQQKPGQPPKLLIYRASTLPSGVPSRFKGSGSGTEFTLTISGVECADAATYYCQQGYSVTNLDEAFGGGTEVVVK
notes: Rabbit clone; VH/VL only
For B12, the Kd came to 6.7 nM.

B13: RNF43-128 (antibody, V domains shown)
VH: EVQLQESGPGLVKPSQSLSLTCSVTGFSITSHYKWNWIRKFPRNKLEWMGYIDNSGSTNYIPSLKSRISITRDTSKNQFFLQVNSVTTEDTATYYCARDCLDWGQGVMVTVSS
VL: DVVLTQTPPTLSATIGQSVSISCRSSQSLLHSNGNTYLHWLIQRPGQSPQLLIYLVSRLESGVPNRFSGSGSGTDFSVKISGVEAEDLGIYYCVQDTHTPWTFGGGTKLELK
notes: Rat clone; VH/VL only
For the molecule B13, the binding result is reported as “no binding”.
